Measured values as given in patent publication US20260345798A1, “COMPOUNDS AND METHODS OF USE THEREOF” (Virginia Commonwealth University, priority 2023, published 2026).
Residues, ends and D or L forms follow the SMILES beside them.

Experiments:
[1] = PK study in mice, IV and IP; type: in vivo
Procedure: These studies were conducted at the Sanford-Burnham Pharmacology Core facility for measurements of IVMT-Rx-3 in plasma after dosing.
The chemical formula of IVMT-Rx-3 (PDZ1/2i) is provided as FIG. 1A, and synthesis schema is described above in Chemical Example 1. Docked structure of IVMT-Rx-3 in complex with MDA-9/Syntenin is provided as FIG. 1B. After confirming the synthesis product using different analytical methods, e.g., HPLC, LC/MS and NMR (FIGS. 8A-8F), the dissociation constant of IVMT-Rx-3-recombinant MDA-9/Syntenin complex was measured to be 63+/−11 μM using microscale thermophoresis (MST) analysis (FIG. 1C). In order to assess if this hybrid chimeric molecule (small molecule linked to a peptide) was suitable for cellular and in vivo assays, initial PK studies in mice were performed with IVMT-Rx-3 administered both IV (5.0 mg/kg) and IP (50.0 mg/kg), and compound concentration in serum was measured at the indicated times (FIG. 1D).

[2] = test system: MMP-2 and MMP-9; assay: Gelatin zymography of conditioned media; type: cell-based, human; details: A-375 and C8161.9 cells, 10, 25, 50 μM, 24 hrs
Procedure: FIG. 5B is images of zymography assays of MMP-2 and MMP-9 activity in A-375, C8161.9 cells treated with IVMT-Rx-3 at varying doses, and histograms showing the calculated intensity from the zymography assays. *: Statistical significance (p<0.05).
Tumor cells were treated with different doses of IVMT-Rx-3 (10, 25, and 50 μM) for 24 hrs. The cells were then cultured in serum-free medium overnight. Conditioned media (serum free media) collected on the next day was quantified and equal amounts of protein were run in a 7.5% SDS-polyacrylamide gel electrophoresis containing 1.5 mg/mL gelatin. The gels were washed vigorously with shaking 3×in 2.5% Triton X-100 solution to remove the SDS. The gel was then placed in the developing buffer [50 mM/L Tris-HCl (pH 7.5), 0.05% NaN3, 5 mM/L CaCl2), and 1 μM/L ZnCl2] 37 °C overnight. Lastly, the gels were stained with Amido black in 10% acetic acid followed by de-staining for 1 hr. MMP activities as observed through gelatinolysis were measured as clear zones of white strips against a blue background (21).

[3] = test system: primary normal human epidermal melanocytes (NHEM); assay: MTT and colony formation assays in normal human melanocytes; type: cell-based
Procedure: FIG. 2A is a histogram showing the results of an MTT assay of normal human melanocytes treated with varying concentrations of IVMT-Rx-3.
FIG. 2B is a histogram showing the results of a colony formation assay of normal human melanocytes treated with varying concentrations of IVMT-Rx-3. Two-hundred cells were plated on 60-mm dishes, treated with IVMT-Rx-3 at different doses. Every third day, culture media was replaced with fresh IVMT-Rx-3-containing media. After two weeks, colonies were stained, counted and graphs plotted.
(§1) The effect of IVMT-Rx-3 on primary normal human epidermal melanocyte cell growth and survival was determined after short term (24 hr., growth assays) (FIG. 2A) and long-term exposure (3-week, clonal assays) (FIG. 2B).

[4] = test system: human melanoma cells (established and early passage patient-derived); assay: Proliferation / colony formation of human melanoma cells; type: cell-based; details: 10 to 50 μM
Source text: FIG. 2C is a series of images showing colony formation assays of established human melanoma and patient-derived early passage human melanoma cells treated with IVMT-Rx-3.
FIG. 2D is a series of histograms showing the number of colonies/plate in the colony formation assays described in FIG. 2C. NS: Not statistically significant; Statistically significant p<0.05.
FIG. 2E is a series of histograms showing the number of colonies/plate in colony formation assays of patient-derived early passage human melanoma cells treated with IVMT-Rx-3. NS: Not statistically significant; Statistically significant p<0.05.
as §1

[5] = test system: X11/mint scaffold protein; assay: Binding to other PDZ domains: X11/mint; details: 33% identity with PDZ1
[6] = test system: IGFBP-2; assay: IGFBP-2 in blood plasma of B16-injected mice; type: in vivo, mouse; details: 30 mg/kg I.P., 6 injections
Source text: FIG. 6C is a histogram showing the IGFBP-2 expression measured in blood plasma from animals (n=7) in the treatment groups described in FIG. 6A. ****: Statistical significance (p<0.0001).

[7] = test system: NF-κB; assay: NF-κB (p65) transcription factor assay; type: cell-based, human; details: A-375 and C8161.9 melanoma cells
Procedure: FIG. 4C is a histogram showing the NF-κB transcriptional activity of A-375 melanoma cells treated with the indicated doses of IVMT-Rx-3. *: Statistical significance (p<0.05).
FIG. 4D is a histogram showing the NF-κB transcriptional activity of C8161.9 melanoma cells treated with the indicated doses of IVMT-Rx-3. *: Statistical significance (p<0.05).
NF-κB transcription factor assay kits were obtained from Cayman Chemical (Ann Arbor, MI, USA) (Cat #10007889). Nuclear extracts were prepared from cells using the Nuclear and Cytoplasmic Extraction kit (Thermo Fisher Scientific, USA). The samples were then added to pretreated wells for 1 hr. after which they were washed with a wash buffer provided in the kit. The NF-κB antibody was then added with a 1 hr. incubation and after washing the antibody, HRP-conjugated secondary antibody was added for 1 hr. Lastly, a developing solution followed by a stop solution was added. The wells were analyzed with a microplate reader for absorbance at 450 nm.

[8] = test system: IL-6, IL-10, IL-16; assay: IL-6, IL-10, IL-16 mRNA by semiquantitative RT-PCR, human melanoma cells; type: cell-based; details: human melanoma cells (A-375, C8161.9)
Procedure: FIG. 14 is a series of histograms showing the IL-6, IL-10, and IL-16 mRNA fold change in RNA lysates prepared from A-375, C8161.9, and B16 cells treated with IVMT-Rx-3 at varying concentrations as indicated.
Total cellular RNA was extracted using an RNAeasy kit (Qiagen, Germany) as described previously (8,9). All Taqman probes used in this study were obtained from Applied Biosystems (Applied Biosystems, Foster City, CA). Real time PCR was performed using an ABI ViiA7 fast real-time PCR system (Applied Biosystems, Foster City, CA).

## Cc1cc(NC(=O)c2nc3[nH]c4c(c(=O)n3n2)CCC4)c(C)cc1NC(=O)CCOCCC(=O)N[C@H](C(=O)N[C@@H](CC(N)=O)C(=O)N[C@@H](CCC(=O)O)C(=O)N[C@@H](Cc1ccc(O)cc1)C(=O)N[C@@H](Cc1ccc(O)cc1)C(=O)N[C@H](C(=O)O)C(C)C)[C@@H](C)O [IVMT-Rx-3] (HELM PEPTIDE1{[Cc1cc(NC(=O)c2nc3[nH]c4c(c(=O)n3n2)CCC4)c(C)cc1NC(=O)CCOCCC(=O)[*:2]].T.N.E.Y.Y.V}$$$$V2.0)
[1]; IV 5.0 mg/kg and IP 50.0 mg/kg
  persistence in vivo: long-lived in vivo
[1]; mouse, serum, IP 50.0 mg/kg (IV 5.0 mg/kg)
  bioavailability: 10%
[2]
  MMP activity (zymography): lower activity in treated cells
[3]; 50 μM, repeated treatment, FIG. 2A and 2B
  effect on cell proliferation on repeated treatment: did not show any effect on cell proliferation
[3]; 50 μM, 24 hr growth assay and 3-week clonal assay
  toxicity in primary melanocytes: No significant toxicity
[3]; summary statement
  toxicity in early passage normal human melanocytes: without provoking toxicity
[3]; varying concentrations, FIG. 2A
  effect on cell proliferation in NHEM (MTT assay): lack of effect
[4]
  inhibition of proliferation or long-term survival: did not inhibit proliferation or long-term survival
[5]
  binding to X11/mint scaffold protein: did not bind appreciably
[6]
  IGFBP-2 levels in blood plasma: down regulation
[7]
  transcriptional activity of NF-κB: suppressed the transcriptional activity of NF-κB in a dose-dependent manner
[8]
  IL-6, IL-10, IL-16 expression: Down-regulation
